Assay results: the supplement of paper PMC6757056
± gives the standard deviation of the averaged measurements.

B1: library; a variant is named by its letters at N, in order (parent)
chain: GCUGUCACCGGUGUAUUACCCUAGUGGUCGACCGGUCUGAUGAGUCUNNNNNNAGACGAAACAGC

What was measured:
[1] = variants of: B1; assay: normalized RNA/DNA level with ligand (relative to sTRSVctl = 100) (log10 (% of sTRSVctl)); ligand: hypoxanthine (xanthine aptamer); higher = less ribozyme self-cleavage, higher mRNA level; settings: ligand concentration (+) RNA-Seq: 5 mM, HEK293T, reporter: mCherry (pCS4076), ligand present: yes
Outline: (§1)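 HEK293T cells were transfected with library plasmids carrying ribozyme switches linked to an mCherry reporter, or an eGFP reporter in some ligand experiments, at 4 µg per well of a 6-well plate, with any ligand added 1 h beforehand. After 72 h, total RNA was extracted with EDTA, reverse-transcribed, amplified, barcoded and sequenced. RNA level was defined as RNA reads over DNA reads, normalized to a spiked-in non-cleaving sequence or to the top-ranked sequences. That value was multiplied by 100 and converted to log10, the top set was 25 sequences, and only sequences with ≥100 DNA reads were retained.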

[2] = variants of: B1; assay: normalized RNA/DNA level without ligand (relative to sTRSVctl = 100) (log10 (% of sTRSVctl)); ligand: hypoxanthine (xanthine aptamer); higher = less ribozyme self-cleavage, higher mRNA level; settings: HEK293T, reporter: mCherry (pCS4076), ligand present: no
Outline: as §1

Variant | normalized RNA/DNA level with ligand (log10) [1] | normalized RNA/DNA level without ligand (log10) [2]
CCACGC | 2.01 ± 0.015 | 1.864 ± 0.0022
CCACGG | 1.91 ± 0.028 | 1.85 ± 0.025
CCACGA | 1.95 ± 0.089 | 1.881 ± 0.0042
CCACGU | 1.93 ± 0.069 | 1.827 ± 0.0023
AAUUCU | 1.9751 ± 0.00092 | 1.855 ± 0.0071
AAUUCC | 1.98 ± 0.039 | 1.9 ± 0.027
GAUUUU | 1.947 ± 0.0067 | 1.908 ± 0.0016
GAUUUC | 1.972 ± 0.018 | 1.907 ± 0.012
CCAGCA | 1.966 ± 0.019 | 1.87 ± 0.043
ACACGC | 1.94 ± 0.033 | 1.71 ± 0.03
CCAGAC | 1.954 ± 0.0047 | 1.877 ± 0.011
CCAGAU | 1.9387 ± 0.00089 | 1.8 ± 0.057
GAUUCC | 1.976 ± 0.0082 | 1.92 ± 0.034
GAUUCU | 1.97 ± 0.065 | 1.92 ± 0.042
UCAAAC | 1.916 ± 0.0079 | 1.85 ± 0.03
GCAACC | 1.93 ± 0.052 | 1.82 ± 0.03
GCAACU | 1.97 ± 0.042 | 1.96 ± 0.028
GCAACG | 1.9 ± 0.031 | 1.595 ± 0.0074
AAUUGU | 1.93 ± 0.004 | 1.705 ± 0.013
AAUUGC | 1.905 ± 0.013 | 1.82 ± 0.046
GCACAU | 1.96 ± 0.033 | 1.76 ± 0.037
GCACAC | 1.9 ± 0.042 | 1.63 ± 0.057
GCACGC | 1.96 ± 0.06 | 1.86 ± 0.043
GCACGA | 1.925 ± 0.0075 | 1.75 ± 0.077

Variant | normalized RNA/DNA level with ligand (log10) [1] | normalized RNA/DNA level without ligand (log10) [2]
GCACGU | 1.91 ± 0.053 | 1.73 ± 0.032
ACAGAA | 1.922 ± 0.012 | 1.7472 ± 0.0012
ACAGAC | 1.92 ± 0.078 | 1.838 ± 0.0042
GCAGAC | 1.89 ± 0.021 | 1.549 ± 0.0076
CCACUU | 1.94 ± 0.024 | 1.914 ± 0.019
CCACUA | 1.97 ± 0.042 | 1.86 ± 0.071
CCACUC | 2.02 ± 0.059 | 1.98 ± 0.036
ACACUC | 1.96 ± 0.023 | 1.97 ± 0.063
ACACUA | 1.94 ± 0.053 | 1.801 ± 0.0044
ACACUU | 1.95 ± 0.059 | 1.83 ± 0.059
CAUUGU | 1.94 ± 0.049 | 1.877 ± 0.0085
CAUUGG | 1.91 ± 0.04 | 1.47 ± 0.068
CAUUGC | 1.94 ± 0.06 | 1.87 ± 0.053
UAUUGA | 1.901 ± 0.016 | 1.74 ± 0.021
UAUUGC | 1.94 ± 0.038 | 1.841 ± 0.0096
UCAGAU | 1.96 ± 0.037 | 1.76 ± 0.066
UCAGAC | 1.964 ± 0.0055 | 1.92 ± 0.042
UCAGAA | 1.9 ± 0.044 | 1.665 ± 0.0042
UCAGAG | 1.9 ± 0.046 | 1.58 ± 0.066
CCACCG | 1.99 ± 0.028 | 1.84 ± 0.2
CCACCA | 1.97 ± 0.026 | 1.88 ± 0.046
CCACCU | 2.033 ± 0.0077 | 1.93 ± 0.053
CCAAGA | 1.945 ± 0.0033 | 1.82 ± 0.034
CCAAGG | 1.83 ± 0.036 | 1.603 ± 0.013

Variant | normalized RNA/DNA level with ligand (log10) [1] | normalized RNA/DNA level without ligand (log10) [2]
ACACCG | 1.9 ± 0.12 | 1.55 ± 0.078
ACACCU | 1.952 ± 0.016 | 1.84 ± 0.024
ACACCA | 1.97 ± 0.069 | 1.873 ± 0.0035
CCAACG | 1.924 ± 0.0039 | 1.859 ± 0.012
CCAACA | 1.93 ± 0.022 | 1.883 ± 0.017
CCACAC | 1.93 ± 0.067 | 1.777 ± 0.015
CCACAG | 1.92 ± 0.04 | 1.66 ± 0.059
CCACAA | 1.9686 ± 0.0014 | 1.8 ± 0.033
CCACAU | 1.92 ± 0.11 | 1.79 ± 0.049
GCACUC | 1.945 ± 0.0064 | 1.873 ± 0.0092
AAUUUA | 1.93 ± 0.047 | 1.828 ± 0.0075
AAUUUC | 1.91 ± 0.0075 | 1.926 ± 0.0082
AAUUUU | 1.946 ± 0.013 | 1.886 ± 0.0096
ACAACU | 1.885 ± 0.018 | 1.83 ± 0.037
ACAACC | 1.91 ± 0.04 | 1.91 ± 0.013
ACAACA | 1.92 ± 0.028 | 1.85 ± 0.022
ACAACG | 1.89 ± 0.047 | 1.49 ± 0.021
GCAAAA | 1.928 ± 0.015 | 1.79 ± 0.025
GCAAAG | 1.894 ± 0.0041 | 1.501 ± 0.0085
UCAAUA | 1.91 ± 0.049 | 1.76 ± 0.021
UCAAUG | 1.85 ± 0.035 | 1.702 ± 0.0043
UCAAUU | 1.96 ± 0.0097 | 1.89 ± 0.023
CAUUCC | 1.98 ± 0.055 | 1.9 ± 0.048
CAUUCG | 1.943 ± 0.012 | 1.89 ± 0.07

Variant | normalized RNA/DNA level with ligand (log10) [1] | normalized RNA/DNA level without ligand (log10) [2]
CAUUCU | 1.91 ± 0.021 | 1.86 ± 0.034
UCACAA | 1.92 ± 0.061 | 1.75 ± 0.019
UCACAC | 1.94 ± 0.088 | 1.741 ± 0.015
UCACAG | 1.87 ± 0.033 | 1.56 ± 0.056
GCAAGC | 1.89 ± 0.074 | 1.575 ± 0.0013
GCAAGU | 1.93 ± 0.036 | 1.69 ± 0.043
GCAAGG | 1.84 ± 0.04 | 1.35 ± 0.032
CCAAUA | 1.899 ± 0.0083 | 1.8 ± 0.032
CCAAUU | 1.924 ± 0.016 | 1.85 ± 0.028
CCAAUC | 1.98 ± 0.032 | 1.94 ± 0.044
ACACAC | 1.92 ± 0.023 | 1.74 ± 0.022
ACACAG | 1.84 ± 0.023 | 1.42 ± 0.054
ACACAU | 1.92 ± 0.03 | 1.723 ± 0.0032
ACACAA | 1.92 ± 0.065 | 1.78 ± 0.028
UCAACC | 1.978 ± 0.0062 | 1.95 ± 0.06
UCAACU | 1.962 ± 0.016 | 1.883 ± 0.0061
UAUUUU | 1.94 ± 0.044 | 1.86 ± 0.05
UAUUUC | 1.974 ± 0.01 | 1.911 ± 0.019
UAUUUG | 1.93 ± 0.039 | 1.78 ± 0.026
UAUUUA | 1.93 ± 0.07 | 1.93 ± 0.053
ACAAUU | 1.939 ± 0.019 | 1.736 ± 0.0095
ACAAUC | 1.9924 ± 0.0011 | 1.93 ± 0.025
UCAAGC | 1.964 ± 0.019 | 1.87 ± 0.053
UCAAGG | 1.936 ± 0.0091 | 1.79 ± 0.026

Variant | normalized RNA/DNA level with ligand (log10) [1] | normalized RNA/DNA level without ligand (log10) [2]
UCACGU | 1.92 ± 0.042 | 1.78 ± 0.062
UCACGG | 1.91 ± 0.043 | 1.79 ± 0.051
UCACGC | 1.94 ± 0.033 | 1.78 ± 0.13
UCACGA | 1.923 ± 0.011 | 1.8 ± 0.043
ACAAGU | 1.88 ± 0.032 | 1.564 ± 0.013
GCAAUU | 1.952 ± 0.011 | 1.858 ± 0.0079
UCACUU | 1.93 ± 0.043 | 1.88 ± 0.025
UCACUA | 1.92 ± 0.051 | 1.83 ± 0.088
UCACUC | 1.99 ± 0.02 | 2.03 ± 0.026
GCACCC | 1.86 ± 0.021 | 1.78 ± 0.035
GCACCG | 1.89 ± 0.023 | 1.62 ± 0.058
GCACCA | 1.939 ± 0.016 | 1.88 ± 0.023
UAUUCG | 1.929 ± 0.0088 | 1.74 ± 0.072
UAUUCC | 1.95 ± 0.023 | 1.852 ± 0.012
UAUUCU | 1.96 ± 0.079 | 1.88 ± 0.035
UCACCC | 1.97 ± 0.026 | 1.89 ± 0.029
CAUUUG | 1.98 ± 0.1 | 1.9 ± 0.049
CAUUUU | 1.973 ± 0.0049 | 1.804 ± 0.0085
CCAAAG | 1.885 ± 0.013 | 1.58 ± 0.033
CCAAAA | 1.92 ± 0.032 | 1.82 ± 0.052
